# B1: C0101PMP114F08 (VHH, not shown: large carriers)
# VHH: EVQLVESGGGLVQAGGSLRLSCAASGSTFIINVVRWYRRTPGKQRELVATISSGGNANYVDSVRGRFSISRDGAKNAVDLQMNGLKPEDTAVYYCNVPTTHYGGVYYGPYWGQGTQVTVSS
# B2: C0101PMP112A01 (VHH, not shown: large carriers)
# VHH: EVQLVESGGGLVQTGGSLRLSCVASGRAFSNYIMGWFRQAPGKERDFVAAINWNGVTTHYTDSVKGRFTISRDNAKSTSYLQMDSLKPDDTAVYFCAARGTVYSRTYGVSEEGYMYWGQGTQVTVSS
# B3: C0101PMP601E08 (VHH, not shown: large carriers)
# VHH: DVQLVESGGGLVQPGGSLRLSCTASGRTFSSYAVGWFRQAPGKEREFVAAISRSGRSTYYADSVKGRFTISRDNSKNTVYLQMNSLRPEDTAVYYCAAGLSYYSPHAYYDYWGQGTLVTVSS
# B4: C0101PMP115B08 (VHH, not shown: large carriers)
# VHH: KVQLVESGGGLVQPGGSLRLSCAASGFTFSMYAMKWVRQAPGKGLEWVSGINSSGGRTNYAGSVKGRFTISRDNAKNTLYLQMNSLKPEDTAVYYCATDFLGGRNSRGQGTQVTVSS
# B5: C0101PMP117G09 (VHH, not shown: large carriers)
# VHH: EVQLVESGGGSALPGGSLRLSCAASGITFSSRYMRWYRQAPGRQRELVAAISSGGRTDYVDSVRGRFTLSINNAKNTVYLQMNDLKPEDTAVYYCYRPRMYVDGTYEKELWGQGTLVTVSS
# B6: C0101PMP604B05 (VHH, not shown: large carriers)
# VHH: DVQLVESGGGLVQPGGSLRLSCVASGRTFSIYTMAWFRQAPGKEREFVAAISWSSGRTYYADSVKGRFTISRDNSKNTVYLQMNSLRPEDTAVYYCTAYTGPRSGYDYWGQGTLVTVSS
# B7: C0101PMP606A05 (VHH, not shown: large carriers)
# VHH: DVQLVESGGGLVQPGGSLRLSCVASGRTFSIYTMGWFRQAPGKEREFVAAISWSGGRTYYADSVKGRFTISRDNSKNTVYLQMNSLRPEDTAVYYCTAYTGRSYGSYDYWGQGTLVTVSS
# B8: C0101PMP606A07 (VHH, not shown: large carriers)
# VHH: DVQLVESGGGLVQPGGSLRLSCVASGRTFSIYGMGWFRQAPGKEREFVAAINGGSRTYYADSVKGRFTISRDNSKNTVYLQMNSLRPEDTAVYYCAADRSGYGTSLDWWYDYWGQGTLVTVSS
# B9: C0101PMP608A05 (VHH, not shown: large carriers)
# VHH: DVQLVESGGGLVQPGGSLRLSCAASGRTFSTYTMGWFRQAPGKEREFVAAISWSGGTTYYADSVKGRFTISRDNSKNTVYLQMNSLRPEDTAVYYCAARPRYYYYSLYSYDYWGQGTLVTVSS
# B10: C0101PMP609C09 (VHH, not shown: large carriers)
# VHH: DVQLVESGGGLVQPGGSLRLSCAASGTIFSINVMGWYRQAPGKEREFVAAITTGGRTNYADSVKGRFTISRDNSKNTVYLQMNSLRPEDTAVYYCNAEVTTGWVGYSWYDYWGQGTMVTVSS
# B11: C0101PMP112A03 (VHH, not shown: large carriers)
# VHH: EVQLVESGGGLVQPGGSLRLSCAASGSIFSNRFMYWYRQAPGKQRELVASITLSGSTNYADSVKGRFTISRDNAKNTVYLQMNSLKPEDTAVYYCNTFLQNSFYWGQGTQVTVSS
# B12: C0101PMP117D05 (VHH, not shown: large carriers)
# VHH: KVQLVESGGGLVQAGGSLRLSCAASRRTFNMMGWFRQAPGKEREFVAYITWNGGDTRYAESVKGRFTVSRDDVKNTMALQMNRLDPLDTAVYYCGVRIHGSNWSTKADDYDNWGQGTQVTVSS
# B13: C0101PMP604G09 (VHH, not shown: large carriers)
# VHH: DVQLVESGGGLVQPGGSLRLSCVASGRTFSSYAMGWFRQAPGKEREFVAAITWSSATTYYADSVKGRFTISRDNSKNTVYLQMNSLRPEDTAVYYCAAARIPVGRRSENWDYWGQGTLVTVSS
# B14: C0101PMP102G11 (VHH, not shown: large carriers)
# VHH: EVQLVESGGGLVQAGGSLRLSCAASGRSFSSYAMGWFRQAPGKEREFVSIISWSGGSTVYADSVKGRFTISRDNAKNTVYLQMNSLKPEDTAIYYCAAGRLYRATPRPADFGSWGQGTQVTVSS
# B15: C0101PMP113A01 (VHH, not shown: large carriers)
# VHH: EVQLVESGGGLVQPGGSLRLSCSASGFTFSGSWMFWVRQAPGKDYEWVASINSSGGRTYYDDSVKGRFTISRDSAKNTLYLEMNNLKPEDTALYFCARSPRVGSWGQGTQVTVSS
# B16: C0101PMP604F02 (VHH, not shown: large carriers)
# VHH: DVQLVESGGGLVQPGGSLRLSCAASGRTFSSYTMGWFRQAPGKEREFVAAISWSGGRTYYADSVKGRFTISRDNSKNTVYLQMNSLRPEDTAVYYCAAYRRRRASSNRGLWDYWGQGTLVTVSS
# B17: C0101PMP604G01 (VHH, not shown: large carriers)
# VHH: DVQLVESGGGLVQPGGSLRLSCAASGRTFSSYTMGWFRQAPGKEREFVAAISWSGRTTYYADSVKGRFTISRDNSKNTVYLQMNSLRPEDTAVYYCAAYRRVRYTNLEVWDYWGQGTLVTVSS
# B18: C01010054 (114F08-ALB26) (VHH, not shown: small tags and cut ends)
# VHH: EVQLVESGGGLVQAGGSLRLSCAASGSTFIINVVRWYRRTPGKQRELVATISSGGNANYVDSVRGRFSISRDGAKNAVDLQMNGLKPEDTAVYYCNVPTTHYGGVYYGPYWGQGTQVTVSS
# B19: C01010118 (ALB26-114F08-114F08) (VHH, not shown: small tags and cut ends)
# VHH 1: EVQLVESGGGLVQAGGSLRLSCAASGSTFIINVVRWYRRTPGKQRELVATISSGGNANYVDSVRGRFSISRDGAKNAVDLQMNGLKPEDTAVYYCNVPTTHYGGVYYGPYWGQGTQVTVSS
# VHH 2: EVQLVESGGGLVQAGGSLRLSCAASGSTFIINVVRWYRRTPGKQRELVATISSGGNANYVDSVRGRFSISRDGAKNAVDLQMNGLKPEDTAVYYCNVPTTHYGGVYYGPYWGQGTQVTVSS
# B20: C01010097 (608A05-ALB26) (VHH, not shown: small tags and cut ends)
# VHH: DVQLVESGGGLVQPGGSLRLSCAASGRTFSTYTMGWFRQAPGKEREFVAAISWSGGTTYYADSVKGRFTISRDNSKNTVYLQMNSLRPEDTAVYYCAARPRYYYYSLYSYDYWGQGTLVTVSS
# B21: C01010109 (ALB26-608A05-608A05) (VHH, not shown: small tags and cut ends)
# VHH 1: DVQLVESGGGLVQPGGSLRLSCAASGRTFSTYTMGWFRQAPGKEREFVAAISWSGGTTYYADSVKGRFTISRDNSKNTVYLQMNSLRPEDTAVYYCAARPRYYYYSLYSYDYWGQGTLVTVSS
# VHH 2: DVQLVESGGGLVQPGGSLRLSCAASGRTFSTYTMGWFRQAPGKEREFVAAISWSGGTTYYADSVKGRFTISRDNSKNTVYLQMNSLRPEDTAVYYCAARPRYYYYSLYSYDYWGQGTLVTVSS
# B22: C01010046 (601E08-ALB26) (VHH, not shown: small tags and cut ends)
# VHH: DVQLVESGGGLVQPGGSLRLSCTASGRTFSSYAVGWFRQAPGKEREFVAAISRSGRSTYYADSVKGRFTISRDNSKNTVYLQMNSLRPEDTAVYYCAAGLSYYSPHAYYDYWGQGTLVTVSS
# B23: C01010060 (606A07-ALB26) (VHH, not shown: small tags and cut ends)
# VHH: DVQLVESGGGLVQPGGSLRLSCVASGRTFSIYGMGWFRQAPGKEREFVAAINGGSRTYYADSVKGRFTISRDNSKNTVYLQMNSLRPEDTAVYYCAADRSGYGTSLDWWYDYWGQGTLVTVSS
# B24: C01010113 (ALB26-606A07-606A07) (VHH, not shown: small tags and cut ends)
# VHH 1: DVQLVESGGGLVQPGGSLRLSCVASGRTFSIYGMGWFRQAPGKEREFVAAINGGSRTYYADSVKGRFTISRDNSKNTVYLQMNSLRPEDTAVYYCAADRSGYGTSLDWWYDYWGQGTLVTVSS
# VHH 2: DVQLVESGGGLVQPGGSLRLSCVASGRTFSIYGMGWFRQAPGKEREFVAAINGGSRTYYADSVKGRFTISRDNSKNTVYLQMNSLRPEDTAVYYCAADRSGYGTSLDWWYDYWGQGTLVTVSS
# B25: C01010094 (604F02-ALB26) (VHH, not shown: small tags and cut ends)
# VHH: DVQLVESGGGLVQPGGSLRLSCAASGRTFSSYTMGWFRQAPGKEREFVAAISWSGGRTYYADSVKGRFTISRDNSKNTVYLQMNSLRPEDTAVYYCAAYRRRRASSNRGLWDYWGQGTLVTVSS
# B26: C01010106 (ALB26-604F02-604F02) (VHH, not shown: large carriers; small tags and cut ends)
# VHH 1: DVQLVESGGGLVQPGGSLRLSCAASGRTFSSYTMGWFRQAPGKEREFVAAISWSGGRTYYADSVKGRFTISRDNSKNTVYLQMNSLRPEDTAVYYCAAYRRRRASSNRGLWDYWGQGTLVTVSS
# VHH 2: DVQLVESGGGLVQPGGSLRLSCAASGRTFSSYTMGWFRQAPGKEREFVAAISWSGGRTYYADSVKGRFTISRDNSKNTVYLQMNSLRPEDTAVYYCAAYRRRRASSNRGLWDYWGQGTLVTVSS
# Target: recombinant cynomolgus Aggrecan G1-IGD-G2 (cynomolgus)
# Test: periplasmic extract ELISA
row,Binder,OD 450 nm [OD 450 nm]
1,B1,2.32
2,B2,2.5
3,B3,1.32
4,B4,1.18
5,B5,2.21
6,B6,2.04
7,B7,1.24
8,B8,2.41
9,B9,2.48
10,B10,1.83
11,B11,2.36
12,B12,2.12
13,B13,1.57
14,B14,0.6
15,B15,2.57
16,B16,1.37
17,B17,1.25

# Target: recombinant cynomolgus Aggrecan G1-IGD-G2 (cynomolgus)
# Test: ELISA on recombinant G1-IGD-G2
row,Binder,EC50 [pM]
1,B18,4400
2,B19,76
3,B20,210
4,B21,91
5,B22,6800
6,B23,5400
7,B24,300
8,B25,2200
9,B26,68

# Target: recombinant cynomolgus Aggrecan G1-IGD-G2 (cynomolgus)
# Test: SPR (ProteOn), off-rate only indicative
row,Binder,koff [s⁻¹]
1,B18,0.0069
2,B20,0.0018
3,B22,0.0031
4,B23,0.02
5,B25,0.15

# Source: patent publication US20200140532A1
